Article PMC5932034 (2018)

How the values were obtained:
[1] = target: FliT−FliD chaperone–substrate complex (non-fused) (Salmonella enterica serovar Typhimurium …, UniProt P0A1N2 1-122; P16328 1-467); assay: ITC
[2] = target: fused FliT−FliD^C construct (FliD^C fused to the N terminus of FliT) (Salmonella enterica serovar Typhimurium …, UniProt P16328); assay: ITC

Chain of FliT−FliD chaperone–substrate complex (non-fused) (P0A1N2 whole entry, chain 1 of 2, the tested form may be a part): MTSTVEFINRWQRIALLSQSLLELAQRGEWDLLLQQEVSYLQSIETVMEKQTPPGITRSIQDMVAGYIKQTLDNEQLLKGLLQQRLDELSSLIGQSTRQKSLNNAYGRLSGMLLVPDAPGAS
Chain of FliT−FliD chaperone–substrate complex (non-fused) (P16328 whole entry, chain 2 of 2, the tested form may be a part): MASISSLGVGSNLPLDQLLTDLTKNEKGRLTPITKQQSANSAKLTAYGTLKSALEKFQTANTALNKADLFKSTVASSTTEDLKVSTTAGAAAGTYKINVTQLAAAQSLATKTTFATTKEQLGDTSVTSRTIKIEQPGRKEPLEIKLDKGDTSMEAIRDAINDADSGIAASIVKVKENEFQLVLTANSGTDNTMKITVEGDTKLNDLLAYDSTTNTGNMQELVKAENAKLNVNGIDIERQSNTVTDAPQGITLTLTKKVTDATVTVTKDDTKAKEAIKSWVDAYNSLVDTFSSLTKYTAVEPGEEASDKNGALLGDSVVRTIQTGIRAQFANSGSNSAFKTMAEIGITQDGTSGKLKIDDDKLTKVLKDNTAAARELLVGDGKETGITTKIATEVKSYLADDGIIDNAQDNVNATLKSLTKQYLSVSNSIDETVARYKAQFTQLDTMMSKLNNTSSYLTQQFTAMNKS

B1: cytoplasmic domain of Salmonella enterica serovar Typhimurium FlhA (FlhA^C) (domain or fragment)
chain: SLGMEVGYRLIPMVDFQQDGELLGRIRSIRKKFAQDMGFLPPVVHIRDNMDLQPARYRILMKGVEIGSGDAYPGRWLAINPGTAAGTLPGEKTVDPAFGLDAIWIESALKEQAQIQGFTVVEASTVVATHLNHLIGQFSAELFGRQEAQQLLDRVSQEMPKLTEDLVPGVVTLTTLHKVLQNLLAEKVPIRDMRTILETLAEHAPLQSDPHELTAVVRVALGRAITQQWFPGNEEVQVIGLDTALERLLLQALQGGGGLEPGLADRLLAQTQEALSRQEMLGAPPVLLVNHALRPLLSRFLRRSLPQLVVLSNLELSDNRHIRMTATIGGK
**Q.** With B1 as the binder, how does the Kd [1] read?
**A.** ~25 µM

**Q.** And the Kd [2]?
**A.** ~29 µM
